Values quoted from earlier work as cited in paper PMC7248048.

Experiments:
[1] = biological target: Vitronectin (Homo sapiens) (UniProt P04004)
[2] = biological target: Fibronectin (Homo sapiens) (UniProt P02751)
Chain of UniProt P02751 (P02751 32-2477): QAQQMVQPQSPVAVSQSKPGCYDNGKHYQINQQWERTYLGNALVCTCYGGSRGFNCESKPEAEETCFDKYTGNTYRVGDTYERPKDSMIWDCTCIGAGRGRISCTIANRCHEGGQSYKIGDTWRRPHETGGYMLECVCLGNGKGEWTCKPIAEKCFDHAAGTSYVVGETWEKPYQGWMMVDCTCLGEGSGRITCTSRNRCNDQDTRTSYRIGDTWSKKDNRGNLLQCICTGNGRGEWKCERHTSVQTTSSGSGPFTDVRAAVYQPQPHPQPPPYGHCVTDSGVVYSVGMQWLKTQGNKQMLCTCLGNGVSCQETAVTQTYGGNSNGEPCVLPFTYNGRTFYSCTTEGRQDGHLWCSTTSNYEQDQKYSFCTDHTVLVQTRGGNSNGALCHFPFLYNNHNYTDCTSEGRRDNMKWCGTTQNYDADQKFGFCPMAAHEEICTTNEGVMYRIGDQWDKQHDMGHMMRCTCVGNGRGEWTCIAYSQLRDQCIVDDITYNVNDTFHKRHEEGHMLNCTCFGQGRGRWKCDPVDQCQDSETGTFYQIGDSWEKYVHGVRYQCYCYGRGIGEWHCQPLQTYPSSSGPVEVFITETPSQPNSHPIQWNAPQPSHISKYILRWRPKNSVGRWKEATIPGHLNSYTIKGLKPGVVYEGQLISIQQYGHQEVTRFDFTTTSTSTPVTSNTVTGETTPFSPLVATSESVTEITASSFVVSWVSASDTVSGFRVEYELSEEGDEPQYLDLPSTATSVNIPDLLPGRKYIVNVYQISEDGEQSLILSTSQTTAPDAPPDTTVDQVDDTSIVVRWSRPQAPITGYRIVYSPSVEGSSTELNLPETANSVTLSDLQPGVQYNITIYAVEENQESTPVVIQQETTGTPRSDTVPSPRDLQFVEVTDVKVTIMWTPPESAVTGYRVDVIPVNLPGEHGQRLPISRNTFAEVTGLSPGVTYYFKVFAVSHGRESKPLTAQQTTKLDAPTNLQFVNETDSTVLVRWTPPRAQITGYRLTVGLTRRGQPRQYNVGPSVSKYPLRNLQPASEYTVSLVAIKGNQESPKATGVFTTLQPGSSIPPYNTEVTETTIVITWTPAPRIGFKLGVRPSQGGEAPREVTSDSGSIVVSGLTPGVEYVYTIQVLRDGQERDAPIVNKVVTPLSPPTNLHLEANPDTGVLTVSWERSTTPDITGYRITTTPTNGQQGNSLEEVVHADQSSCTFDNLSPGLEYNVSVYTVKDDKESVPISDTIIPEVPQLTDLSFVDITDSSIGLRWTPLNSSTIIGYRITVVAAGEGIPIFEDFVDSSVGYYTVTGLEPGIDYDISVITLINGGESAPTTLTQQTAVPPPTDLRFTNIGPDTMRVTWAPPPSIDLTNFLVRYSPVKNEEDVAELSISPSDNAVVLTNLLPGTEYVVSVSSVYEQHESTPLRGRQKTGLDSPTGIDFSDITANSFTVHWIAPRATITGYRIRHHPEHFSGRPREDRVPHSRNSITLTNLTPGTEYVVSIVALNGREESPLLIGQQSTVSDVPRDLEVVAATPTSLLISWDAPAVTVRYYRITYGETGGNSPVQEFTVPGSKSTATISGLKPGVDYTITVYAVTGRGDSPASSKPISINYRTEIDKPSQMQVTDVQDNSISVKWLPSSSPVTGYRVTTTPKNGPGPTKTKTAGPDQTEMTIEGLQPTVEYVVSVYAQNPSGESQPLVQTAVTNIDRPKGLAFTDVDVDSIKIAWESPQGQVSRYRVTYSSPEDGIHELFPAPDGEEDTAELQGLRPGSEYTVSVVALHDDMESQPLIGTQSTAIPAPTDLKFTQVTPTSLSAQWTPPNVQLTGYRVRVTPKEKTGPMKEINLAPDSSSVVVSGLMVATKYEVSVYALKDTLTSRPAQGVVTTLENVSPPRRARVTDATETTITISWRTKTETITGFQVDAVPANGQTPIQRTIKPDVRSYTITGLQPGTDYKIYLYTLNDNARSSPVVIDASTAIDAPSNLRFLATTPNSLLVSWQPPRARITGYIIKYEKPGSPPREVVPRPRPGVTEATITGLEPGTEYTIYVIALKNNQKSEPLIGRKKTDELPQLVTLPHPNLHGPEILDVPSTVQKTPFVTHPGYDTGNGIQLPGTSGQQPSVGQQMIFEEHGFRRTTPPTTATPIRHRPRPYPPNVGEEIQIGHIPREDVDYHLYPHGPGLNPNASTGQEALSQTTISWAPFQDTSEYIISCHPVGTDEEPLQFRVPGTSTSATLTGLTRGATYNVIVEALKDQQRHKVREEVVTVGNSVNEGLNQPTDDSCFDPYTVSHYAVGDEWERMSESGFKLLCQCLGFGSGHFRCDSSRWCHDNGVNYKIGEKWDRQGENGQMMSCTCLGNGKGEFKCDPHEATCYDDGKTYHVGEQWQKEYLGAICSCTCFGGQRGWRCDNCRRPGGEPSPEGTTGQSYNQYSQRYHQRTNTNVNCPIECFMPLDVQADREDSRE

Chain of UniProt P04004 (P04004 399-478): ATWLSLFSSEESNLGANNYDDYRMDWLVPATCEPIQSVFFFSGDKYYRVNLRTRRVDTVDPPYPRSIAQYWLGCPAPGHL

In the case of “Haemophilus lipoprotein e (P4) (from UniProt P26093)”, the Kd [1] is listed as 16.5 nM and the Kd [2] is listed as 10.2 nM.
